Experimental data as given in paper PMC9288967.

Experiments:
[1] = molecular target: spike RBD of the Delta variant (B.1.617.2) (SARS-CoV-2) (UniProt P0DTC2); experiment: cross-linking
[2] = molecular target: spike RBD of the Alpha variant (B.1.1.7) (SARS-CoV-2) (UniProt P0DTC2); experiment: cross-linking

mNb6(108FFY) (VHH)
kobs (apparent first-order constant of cross-linking) [1]: 0.156 h⁻¹
kobs (apparent first-order constant of cross-linking) [2]: 0.086 h⁻¹
